Test results reported in patent publication US6858210B1, “Therapeutic and diagnostic domain 1 β2GPI polypeptides and methods of using same” (La Jolla Pharmaceutical Co., priority 1998, dated 2005).
Residue numbers refer to the chain shown, from its start. In names and notes the source's numbering stands.

B1: B11: phage clone, domain 1 mutant M42K (protein)
chain: GRTCPKPDDLPFSTVVPLKTFYEPGEEITYSCKPGYVSRGGKRKFICPLTGLWPINTLKCTPRV
B2: 2D4: phage clone, domain 1 mutant M42T (protein)
chain: B1 chain with K42T
B3: 2D12: phage clone, domain 1 mutant F45L (protein)
chain: B1 chain with K42M, F45L
B4: 2C3: phage clone, domain 1 mutant P54S (protein)
chain: B1 chain with K42M, P54S
B5: 2D9: phage clone displaying β2GPI domain 1 mutant T3P (protein)
chain: GRPCPKPDDLPFSTVVPLKTFYEPGEEITYSCKPGYVSRGGMRKFICPLTGLWPINTLKCTPRVAEPVESCLAKPHTENSFTNVWKDDKTLDRYANYEGCLWNATGVVVCTGDETQCYGTWVPIGLAIPENEGGGSEGGGSEGGGSEGGGTKPPEYGDTPIPGYTYINPLDGTYPPGTEQNPANPNPSLEESQPLNTFMFQNNRFRNRQGALTVYTGTVTQGTDPVKTYYQYTPVSSKAMYDAYWNGKFRDCAFHSGFNEDPFVCEYQGQSSDLPQPPVNAGGGSGGGSGGGSEGGGSEGGGSEGGGSEGGGSGGGSGSGDFDYEKMANANKGAMTENADENALQSDAKGKLDSVATDYGAAIDGFIGDVSGLANGNGATGDFAGSNSQMAQVGDGDNSPLMNNFRQYLPSLPQSVECRPYVFGAGKPYEFSIDCDKINLFRGVFAFLLYVATFMYVFSTFANILRNKES

tested on: human β2GPI-dependent antiphospholipid antibody; assay: Micropanning of mutant domain 1 phage, patient antibodies; type: binding; details: Table 7A, antibody 6501

Question: B1 was tested. Which μpan score did it give?
Answer: Its μpan score is 3.

Question: How did the μpan score turn out when B2 was run?
Answer: The μpan score was 2.

Question: How did the μpan score turn out when B3 was run?
Answer: The μpan score was 3.

Question: How did the μpan score turn out when B4 was run?
Answer: Its μpan score is 1.

Question: B5 was tested. Which μpan score did it give?
Answer: The μpan score was 3.

same assay, conditions: Table 7A, antibody 6626

Question: How did the μpan score turn out when B1 was run?
Answer: The μpan score was 3.

Question: With B2 as the molecule, how does the μpan score read?
Answer: Its μpan score is 1.

Question: For B3, which μpan score is on record?
Answer: The μpan score was 2.

Question: B4 was tested. Which μpan score did it give?
Answer: Its μpan score is 1.

Question: How did the μpan score turn out when B5 was run?
Answer: Its μpan score is 2.

same assay, conditions: Table 7A, antibody 6701

Question: How did the μpan score turn out when B1 was run?
Answer: The μpan score was 3.

Question: For B2, which μpan score is on record?
Answer: The μpan score was 3.

Question: How did the μpan score turn out when B3 was run?
Answer: Its μpan score is 2.

Question: B4 was tested. Which μpan score did it give?
Answer: The μpan score was 1.

Question: With B5 as the molecule, how does the μpan score read?
Answer: Its μpan score is 3.

same assay, conditions: Table 7B, antibody 6226

Question: B1 was tested. Which Micropan score did it give?
Answer: The Micropan score was 4.

Question: With B2 as the molecule, how does the Micropan score read?
Answer: The Micropan score was 3.

Question: With B3 as the molecule, how does the Micropan score read?
Answer: Its Micropan score is 4.

Question: Which Micropan score does the source give for B4 here?
Answer: Its Micropan score is 2.

Question: Which Micropan score does the source give for B5 here?
Answer: Its Micropan score is 4.

same assay, conditions: Table 7B, antibody 6501

Question: B1 was tested. Which Micropan score did it give?
Answer: Its Micropan score is 4.

Question: How did the Micropan score turn out when B2 was run?
Answer: The Micropan score was 4.

Question: For B3, which Micropan score is on record?
Answer: Its Micropan score is 4.

Question: Which Micropan score does the source give for B4 here?
Answer: The Micropan score was 2.

Question: Which Micropan score does the source give for B5 here?
Answer: Its Micropan score is 4.

same assay, conditions: Table 7B, antibody 6632

Question: How did the Micropan score turn out when B1 was run?
Answer: Its Micropan score is 4.

Question: Which Micropan score does the source give for B2 here?
Answer: Its Micropan score is 4.

Question: For B3, which Micropan score is on record?
Answer: Its Micropan score is 4.

Question: With B4 as the molecule, how does the Micropan score read?
Answer: Its Micropan score is 3.

Question: For B5, which Micropan score is on record?
Answer: The Micropan score was 3.

same assay, conditions: Table 7B, antibody 6644

Question: B1 was tested. Which Micropan score did it give?
Answer: The Micropan score was 4.

Question: B2 was tested. Which Micropan score did it give?
Answer: The Micropan score was 4.

Question: Which Micropan score does the source give for B3 here?
Answer: The Micropan score was 4.

Question: Which Micropan score does the source give for B4 here?
Answer: The Micropan score was 3.

Question: With B5 as the molecule, how does the Micropan score read?
Answer: The Micropan score was 4.

same assay, conditions: Table 7B, antibody 6701

Question: B1 was tested. Which Micropan score did it give?
Answer: Its Micropan score is 4.

Question: For B2, which Micropan score is on record?
Answer: Its Micropan score is 4.

Question: B3 was tested. Which Micropan score did it give?
Answer: The Micropan score was 2.

Question: With B4 as the molecule, how does the Micropan score read?
Answer: The Micropan score was 2.

Question: For B5, which Micropan score is on record?
Answer: Its Micropan score is 4.

same assay, conditions: Table 7B, antibody 7008

Question: B1 was tested. Which Micropan score did it give?
Answer: The Micropan score was 4.

Question: Which Micropan score does the source give for B2 here?
Answer: The Micropan score was 4.

Question: For B3, which Micropan score is on record?
Answer: The Micropan score was 4.

Question: B4 was tested. Which Micropan score did it give?
Answer: Its Micropan score is 3.

Question: Which Micropan score does the source give for B5 here?
Answer: Its Micropan score is 4.

tested on: rabbit anti-human β2GPI; assay: Micropanning of mutant domain 1 phage, rabbit antibody; type: binding; parameters: key: 0 (<10 colonies) to 4+ (confluent) semiquantitative colony score; details: Table 7A, first (or only) value
Description: Error prone PCR was carried out as follows. Domain 1 of human β2GPI was amplified by PCR under conditions that enhance the error rate of Taq polymerase. The primers were such that amino acids 1-64 were amplified. A Sfc 1 restriction site was incorporated as part of amino acid 1. At the 3′ end a Sal 1 restriction site was incorporated after amino acid 64. The PCR reaction was done as described by Leung et al. (1989) Technique 1:11, using 0.25 mM MnCl2. The PCR product was digested with Sfc 1 and Sal 1 and cloned into fd-tet-DOG2 that had been digested with Apal 1 and Sal 1. This positions domain 1 at the N-terminus of pill immediately after the pill signal sequence. The ligation reaction was electroporated in E. coli K91. Phage were harvested and titered by standard methods. Resulting phage clones were assayed using a micropanning technique.
Immulon type 2 plates were coated with protein G. Protein G was prepared at 5 μg/mL in 0.1 M NaHCO3 and 100 μL per well was added to the wells of microtitration plates and incubated overnight at 4° C. After discarding excess protein G solution from plates, each well was blocked with 200 μL 2YT for 1 hour at RT with agitation on an oscillating platform. Tris-buffered saline, pH 7.4/0.5% Tween 20 (TBS/Tween), was used with an automatic plate washer to wash the wells 4 times with 200 μL. One hundred μL human β2GPI-dependent antiphospholipid 6626, 6501, 6701, rabbit β2GPI-dependent antiphospholipid, or control normal IgG, diluted to 2.5 μg/mL with 2YT, was added to washed wells. The plate was incubated for 1 hour at room temperature on a rotating platform.
Phage to be tested by micropanning were obtained from the agar plates generated by biopanning. Each clone to be tested was transferred using sterile toothpicks to a separate well of a round-bottom 96-well microtitration plate (Corning, Corning, N.Y.) containing 200 μL 2YT/Tet per well and cultured overnight at 30° C. Following overnight incubation, phage cultures were centrifuged using a microtitration plate holder at 1300×g for 10 minutes at room temperature. Supernatants constituted the source of “neat” phage. The neat phage were diluted 1: 100-1:1000 and 100 μL was added to the plate containing protein G-bound β2GPI-dependent antiphospholipid antibody-6501 and normal IgG prepared as described above. The incubation of dilute phage with aPL antibody or control IgG was carried out for 2 hours at room temperature on a flat rotator. After 9 washes with TBS/Tween in an automated plate washer, the IgG-bound phage was eluted with 20 μL of 0.2 N HCl-glycine/0.1% BSA, pH 2.2. The elution incubation continued for 10 minutes at RT, during which time a new Corning microtitration plate was prepared containing 20 μL of freshly starved E. coli per well and kept chilled. One hundred forty μL of 29 mM Tris was added to the plate containing the phage eluates in order to neutralize the pH, following which 20 μL of phage suspension was transferred from each well to the corresponding well in the plate containing starved E. coli. After a 10 minute incubation at 37° C., 200 μL 2YT was added and incubation carried out an additional 30 minutes at 37° C. Using multichannel pipettors, 8 μL from each well was spotted on a large 2YT/Tet agar plate while retaining the original 8×12 well pattern and orientation from the last microtitration plate. After allowing the spots to dry for 30 minutes, the plate was incubated overnight at 30° C. The following day, colonies were semiquantitatively scored from 0 to 4+, with 0 symbolizing <10 colonies; 1+=10-30; 2+=30 colonies to 70% confluent; 3+=70%-90% confluent; 4+=confluent.
For Table 7A, the rabbit anti-human β2GPI was performed on two separate occasions. Mutations are listed with the original amino acid, the position number, and the identity of the amino acid at that position in the mutant. […] Non-mutated domain 1 have a score of 3+, while domain 5 phage gave a score of −. Silent mutations are not shown. […]

Question: B1 was tested. Which μpan score did it give?
Answer: The μpan score was 3.

Question: Which μpan score does the source give for B2 here?
Answer: Its μpan score is 3.

Question: Which μpan score does the source give for B3 here?
Answer: Its μpan score is 3.

Question: Which μpan score does the source give for B4 here?
Answer: The μpan score was 3.

Question: B5 was tested. Which μpan score did it give?
Answer: Its μpan score is 2.

same assay, conditions: Table 7A, second value (second occasion)

Question: How did the μpan score turn out when B1 was run?
Answer: Its μpan score is 4.

same assay, conditions: Table 7B, 1st column

Question: For B1, which Micropan score is on record?
Answer: The Micropan score was 4.

Question: For B2, which Micropan score is on record?
Answer: The Micropan score was 4.

Question: With B3 as the molecule, how does the Micropan score read?
Answer: The Micropan score was 4.

Question: Which Micropan score does the source give for B4 here?
Answer: Its Micropan score is 2.

Question: Which Micropan score does the source give for B5 here?
Answer: Its Micropan score is 4.

same assay, conditions: Table 7B, 2nd column

Question: How did the Micropan score turn out when B1 was run?
Answer: Its Micropan score is 4.

Question: How did the Micropan score turn out when B2 was run?
Answer: The Micropan score was 4.

Question: With B3 as the molecule, how does the Micropan score read?
Answer: The Micropan score was 4.

Question: With B4 as the molecule, how does the Micropan score read?
Answer: Its Micropan score is 4.

Question: With B5 as the molecule, how does the Micropan score read?
Answer: Its Micropan score is 4.

same assay, conditions: Table 7B, 3rd column

Question: How did the Micropan score turn out when B1 was run?
Answer: The Micropan score was 4.

Question: For B2, which Micropan score is on record?
Answer: The Micropan score was 4.

Question: Which Micropan score does the source give for B3 here?
Answer: Its Micropan score is 4.

Question: B4 was tested. Which Micropan score did it give?
Answer: Its Micropan score is 4.

Question: B5 was tested. Which Micropan score did it give?
Answer: The Micropan score was 4.

same assay, conditions: Table 7B, 4th column

Question: For B1, which Micropan score is on record?
Answer: Its Micropan score is 4.

Question: For B2, which Micropan score is on record?
Answer: Its Micropan score is 4.

Question: How did the Micropan score turn out when B3 was run?
Answer: Its Micropan score is 4.

Question: B4 was tested. Which Micropan score did it give?
Answer: Its Micropan score is 4.

Question: How did the Micropan score turn out when B5 was run?
Answer: Its Micropan score is 4.
